{"source": "patent US20260193377A1", "about": "(FULL LIFE TECHNOLOGIES HK, published 2026)", "data": [{"biological_target": "T1, Human GUCY2C (captured on anti-human Fc capturing antibody, SPR) (human)", "T1 construct": "also called human GCC; guanylyl cyclase C", "T1 sequence (P25092 24-430)": "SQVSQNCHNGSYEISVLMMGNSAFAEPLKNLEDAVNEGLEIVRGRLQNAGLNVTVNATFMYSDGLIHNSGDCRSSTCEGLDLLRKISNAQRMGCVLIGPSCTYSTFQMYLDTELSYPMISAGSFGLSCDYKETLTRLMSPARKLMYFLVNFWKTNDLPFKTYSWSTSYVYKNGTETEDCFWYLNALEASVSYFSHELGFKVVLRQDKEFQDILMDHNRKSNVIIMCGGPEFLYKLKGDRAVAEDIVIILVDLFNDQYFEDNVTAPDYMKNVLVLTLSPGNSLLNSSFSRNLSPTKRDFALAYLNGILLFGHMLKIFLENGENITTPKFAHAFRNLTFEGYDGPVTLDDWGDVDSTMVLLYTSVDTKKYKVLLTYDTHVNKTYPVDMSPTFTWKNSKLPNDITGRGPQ", "assay": "SPR (Biacore T200), human GUCY2C captured via anti-human Fc, sdAb as analyte, 1:1 fit", "method": "(§1) Anti-GCC sdAbs were diluted with 1×HBS-EP buffer. Human GUCY2C was captured on anti-human Fc capturing Ab-immobilized sCM5 chip. Then anti-GCC sdAb samples were injected with a flow rate of 10 μl/min for 180 sec, followed by dissociation for 800 sec. The binding curves were locally fitted with Biacore® T200 analysis software (BIAevaluation) using a 1:1 Langmuir binding model.", "units": {"Kd": "nM", "koff": "s⁻¹", "kon": "M⁻¹ s⁻¹"}, "values": [{"binder": "anti-GCC single domain antibody SEQ ID NO. 5 (VHH, Alpaca-derived sdAb) VHH: AVQLVESGGGLVQPGGSLRLSCAASGSTISINVMGWYRQAPGKQRDLVAAISSVGSTYYADSVKGRFTISRDNAKNTVYLQMNSLKPEDTAVYYCNAKSLISDYWGQGTQVTVSS", "Kd": 0.431, "koff": 0.000142, "kon": 330000}, {"binder": "anti-GCC single domain antibody SEQ ID NO. 10 (VHH, Alpaca-derived sdAb) VHH: AVQLVESGGGMVQPGGSLRLSCAASGFTFGAYDMTWVRQAPGKGAEWVSAINSGGDRTYYTDSVKGRFTISRDNAKNTLYLQMNSLKPADTAKYYCGTKIPQFLRGQGTQVTVSS", "Kd": 0.427, "koff": 0.000702, "kon": "1.64e+06"}, {"binder": "anti-GCC single domain antibody SEQ ID NO. 6 (VHH, Alpaca-derived sdAb) VHH: QVQVVESGGGLVQAGGSLRLSCAASGRAFSSYAMGWFRQAPGKQRELVAVITSGGSTNYADSVKGRFTISRDNAKNTVYLQMNSLKPEDTAVYYCAAGTGYGGGFLIGYDYWGQGTQVTVSS", "Kd": 0.753, "koff": 0.000172, "kon": 228000}, {"binder": "anti-GCC single domain antibody SEQ ID NO. 4 (VHH, Alpaca-derived sdAb) VHH: QSQLVESGGGLVQPGGSLRLSCAASGSTLDHYATAWFRRAPGKEREGISYISSGGGSTYYVDSVKGRFTISRDNAKRTVYLQMNSLKPEDTAVYFCASKRRFNTGWSEPSDYNVWGQGTQVTVTS", "Kd": 0.414, "koff": 0.000149, "kon": 359000}, {"binder": "anti-GCC single domain antibody SEQ ID NO. 1 (VHH, Alpaca-derived sdAb) VHH: QVQLVESGGGLVQAGGSLRLSCTGSARPFSNYGMGWFRQAPGKEREFVAAISGGGVYTDFADAVKGRFTISRDNAKNTVYLQMNSLKPEDTAVYYCARARTARVVSRRHEYDYWGQGTQVTVSS", "Kd": 0.56, "koff": 0.0002, "kon": 357000}, {"binder": "anti-GCC single domain antibody SEQ ID NO. 3 (VHH, Alpaca-derived sdAb) VHH: QVQFVESGGGLVQAGGSLRLSCTASGGIFSNYGMGWFRQAPGKEREFVAAISGGGVYTDFADSVKGRFTISRDRAKNTVYLQMNSLKPEDTAVYYCARARTARLTSRRHDYDYWGQGTQVTVSS", "Kd": 0.218, "koff": 0.00018, "kon": 827000}, {"binder": "anti-GCC single domain antibody SEQ ID NO. 2 (VHH, Alpaca-derived sdAb) VHH: QVQLVESGGGLVQAGGSLRLSCTASGGTFVNYGMGWFRQAPGKEREFVAAISGGGVYRDFADSVKGRFTISRDNAKNTVYLQMNSLKPEDTALYYCARARTPRVVNRRHEYDYWGQGTQVTVSS", "Kd": 0.0759, "koff": "4.67e-05", "kon": 615000}]}, {"biological_target": "T1, Human GUCY2C (captured on anti-human Fc …)", "assay": "SPR (Biacore T200), human GUCY2C captured via anti-human Fc, humanized sdAb as analyte, 1:1 fit", "method": "as §1, with “Exemplary humanized anti-GCC” for “Anti-GCC”, “sdAbs of the present application” for “sdAbs”, “Then the humanized” for “Then”", "units": {"Kd": "nM", "koff": "s⁻¹", "kon": "M⁻¹ s⁻¹"}, "values": [{"binder": "humanized anti-GCC single domain antibody SEQ ID NO. 100 (VHH, 5) VHH: AVQLVESGGGLVQPGGSLRLSCAASGSTISINVMGWYRQAPGKQRDLVAAISSVGSTYYADSVKGRFTISRDNSKNTLYLQMNSLRAEDTAVYYCNAKSLISDYWGQGTQVTVSS", "Kd": 0.324, "koff": 0.000191, "kon": 591000}, {"binder": "humanized anti-GCC single domain antibody SEQ ID NO. 101 (VHH, 5) VHH: AVQLVESGGGLVQPGGSLRLSCAASGSTISINVMGWYRQAPGKQRDLVAAISSVGSTYYADSVAGRFTISRDNSRNTLYLQMNSLRAEDTAVYYCNAKSLISDYWGQGTQVTVSS", "Kd": 0.574, "koff": 0.000218, "kon": 380000}, {"binder": "humanized anti-GCC single domain antibody SEQ ID NO. 112 (VHH, 8) VHH: EVQLVESGGGLVQPGGSLRLSCAASGFTFSHYAMSWVRQAPGKALEWVSDISSGGGITYYADSVKGRFTISRDNSKNTLYLQMNSLRAEDTAVYYCAKASAIGYLAYWMRNPVEYDTRGQGTLVTVSS", "Kd": 118, "koff": 0.00462, "kon": 39100}, {"binder": "humanized anti-GCC single domain antibody SEQ ID NO. 113 (VHH, 8) VHH: EVQLVESGGGLVQPGGSLRLSCGASGFTFSHYAMSWVRQAPGKALEWVSDISSGGGITKYADSVKGRFTISRDNSKNTLYLQMNSLRAEDTAVYYCAKASAIGYLAYWMRNPVEYDTRGQGTLVTVSS", "Kd": 1.29, "koff": 0.00277, "kon": "2.15e+06"}, {"binder": "humanized anti-GCC single domain antibody SEQ ID NO. 114 (VHH, 8) VHH: QVQLVESGGGLVQPGGSLRLSCAASGFTFSHYAMSWVRQAPGKALEWVSDISSGGGITYYADSVAGRFTISRDNSRNTLYLQMNSLRAEDTAVYYCAKASAIGYLAYWMRNPVEYDTRGQGTLVTVSS", "Kd": 195, "koff": 0.0044, "kon": 22600}, {"binder": "humanized anti-GCC single domain antibody SEQ ID NO. 107 (VHH, 7) VHH: EVQLVESGGGLVQPGGSLRLSCAASGSRFMTSSMGWYRQTPGKQREWVATATSSDSTLYADSVKGRFTISRDNAKNSLYLQMNSLRAEDTAVYYCFTTPPTFWGHGTQVTVSS", "Kd": 2.03, "koff": 0.000531, "kon": 261000}, {"binder": "humanized anti-GCC single domain antibody SEQ ID NO. 109 (VHH, 7) VHH: EVQLVESGGGLVQPGGSLRLSCAASGSRFMTSSMGWYRQTPGNQREWVATATSSDSTLYADSVKGRFTISRDNAKNSLYLQMNSLRAEDTAVYYCFTTPPTFWGHGTQVTVSS", "Kd": 11.8, "koff": 0.00213, "kon": 181000}, {"binder": "humanized anti-GCC single domain antibody SEQ ID NO. 108 (VHH, 7) VHH: EVQLVESGGGLVQPGGSLRLSCAASGSRFMTSSMGWYRQTPGKQREWVATATSSDSTLYADSVKGRFTISRDNARNSLYLQMNSLRAEDTAVYYCFTTPPTFWGHGTQVTVSS", "Kd": 2.37, "koff": 0.000546, "kon": 231000}, {"binder": "humanized anti-GCC single domain antibody SEQ ID NO. 110 (VHH, 7) VHH: EVQLVESGGGLVQPGGSLRLSCAASGSRFMTSSMGWYRQTPGNGREWVATATSSDSTLYADSVKGRFTISRDNAKNSLYLQMNSLRAEDTAVYYCFTTPPTFWGHGTQVTVSS", "Kd": 54.6, "koff": 0.01, "kon": 183000}, {"binder": "humanized anti-GCC single domain antibody SEQ ID NO. 83 (VHH, 1) VHH: EVQLVESGGGLVQPGGSLRLSCAASARPFSNYGMGWFRQAPGKEREFVAAISGGGVYTYYADSVKGRFTISRDNSKNTLYLQMNSLRAEDTAVYYCARARTARVVSRRHEYDYWGQGTQVTVSS", "Kd": 0.115, "koff": 0.000177, "kon": "1.53e+06"}, {"binder": "humanized anti-GCC single domain antibody SEQ ID NO. 92 (VHH, 3) VHH: EVQLVESGGGLVQPGGSLRLSCAASGGIFSNYGMGWFRQAPGKEREFVAAISGGGVYTYYADSVKGRFTISRDNSKNTLYLQMNSLRAEDTAVYYCARARTARLTSRRHDYDYWGQGTQVTVSS", "Kd": 0.759, "koff": 0.000788, "kon": "1.04e+06"}, {"binder": "humanized anti-GCC single domain antibody SEQ ID NO. 88 (VHH, 2) VHH: EVQLVESGGGLVQPGGSLRLSCAASGGTFVNYGMGWFRQAPGKEREFVAAISGGGVYRYYADSVKGRFTISRDNSKNTLYLQMNSLRAEDTAVYYCARARTPRVVNRRHEYDYWGQGTQVTVSS", "Kd": 0.155, "koff": 0.000337, "kon": "2.17e+06"}, {"binder": "humanized anti-GCC single domain antibody SEQ ID NO. 94 (VHH, 3) VHH: EVQLVESGGGLVQPGGSLRLSCAASGGIFSNYGMGWFRQAPGKEREFVAAISGGGVYTYYADSVKGRFTISRDNSRNTLYLQMNSLRAEDTAVYYCARARTARLTSRRHDYDYWGQGTQVTVSS", "Kd": 0.425, "koff": 0.000633, "kon": "1.49e+06"}, {"binder": "humanized anti-GCC single domain antibody SEQ ID NO. 85 (VHH, 1) VHH: EVQLVESGGGLVQPGGSLRLSCAASARPFSNYGMGWFRQAPGKEREFVAAISGGGVYTYYADSVKGRFTISRDNSRNTLYLQMNSLRAEDTAVYYCARARTARVVSRRHEYDYWGQGTQVTVSS", "Kd": 0.187, "koff": 0.000309, "kon": "1.66e+06"}, {"binder": "humanized anti-GCC single domain antibody SEQ ID NO. 116 (VHH, 9) VHH: QVQLVESGGGLVKPGGSLRLSCAASGETLSNYNIGWFRQAPGKEREGVSCISQIGFTNYADSVKGRFTISRDNAKNSLYLQMNSLRAEDTAVYYCAVTGGRWASCSFLPLRQDFESWGQGTLVTVSS", "Kd": 15.4, "koff": 0.0636, "kon": "4.14e+06"}, {"binder": "humanized anti-GCC single domain antibody SEQ ID NO. 96 (VHH, 4) VHH: QSQLVESGGGLVQPGGSLRLSCAASGSTLDHYATAWFRRAPGKEREGISYISSGGGSTYYADSVKGRFTISRDNSKNTLYLQMNSLRAEDTAVYYCASKRRFNTGWSEPSDYNVWGQGTQVTVTS", "Kd": 1.74, "koff": 0.000143, "kon": 82600}, {"binder": "humanized anti-GCC single domain antibody SEQ ID NO. 97 (VHH, 4) VHH: QSQLVESGGGLVQPGGSLRLSCAASGSTLDHYATAWFRRAPGKEREGISYISSGGGSTYYVDSVKGRFTISRDNSKNTLYLQMNSLRAEDTAVYFCASKRRFNTGWSEPSDYNVWGQGTQVTVTS", "Kd": 3.68, "koff": 0.000226, "kon": 61300}, {"binder": "humanized anti-GCC single domain antibody SEQ ID NO. 86 (VHH, 1) VHH: EVQLVESGGGLVQPGGSLRLSCTGSARPFSNYGMGWFRQAPGNEREFVAAISGGGVYTDFADSVKGRFTISRDNSKNTLYLQMNSLRAEDTAVYYCARARTARVVSRRHEYDYWGQGTQVTVSS", "Kd": 0.235, "koff": 0.000181, "kon": 768000}]}, {"biological_target": "T2, GCC expressed on T84 cells (UniProt P25092 24-1073, limits assumed)", "T2 construct": "whole, on cells; also called guanylyl cyclase C; GUCY2C", "T2 sequence (P25092 24-1073 limits assumed)": "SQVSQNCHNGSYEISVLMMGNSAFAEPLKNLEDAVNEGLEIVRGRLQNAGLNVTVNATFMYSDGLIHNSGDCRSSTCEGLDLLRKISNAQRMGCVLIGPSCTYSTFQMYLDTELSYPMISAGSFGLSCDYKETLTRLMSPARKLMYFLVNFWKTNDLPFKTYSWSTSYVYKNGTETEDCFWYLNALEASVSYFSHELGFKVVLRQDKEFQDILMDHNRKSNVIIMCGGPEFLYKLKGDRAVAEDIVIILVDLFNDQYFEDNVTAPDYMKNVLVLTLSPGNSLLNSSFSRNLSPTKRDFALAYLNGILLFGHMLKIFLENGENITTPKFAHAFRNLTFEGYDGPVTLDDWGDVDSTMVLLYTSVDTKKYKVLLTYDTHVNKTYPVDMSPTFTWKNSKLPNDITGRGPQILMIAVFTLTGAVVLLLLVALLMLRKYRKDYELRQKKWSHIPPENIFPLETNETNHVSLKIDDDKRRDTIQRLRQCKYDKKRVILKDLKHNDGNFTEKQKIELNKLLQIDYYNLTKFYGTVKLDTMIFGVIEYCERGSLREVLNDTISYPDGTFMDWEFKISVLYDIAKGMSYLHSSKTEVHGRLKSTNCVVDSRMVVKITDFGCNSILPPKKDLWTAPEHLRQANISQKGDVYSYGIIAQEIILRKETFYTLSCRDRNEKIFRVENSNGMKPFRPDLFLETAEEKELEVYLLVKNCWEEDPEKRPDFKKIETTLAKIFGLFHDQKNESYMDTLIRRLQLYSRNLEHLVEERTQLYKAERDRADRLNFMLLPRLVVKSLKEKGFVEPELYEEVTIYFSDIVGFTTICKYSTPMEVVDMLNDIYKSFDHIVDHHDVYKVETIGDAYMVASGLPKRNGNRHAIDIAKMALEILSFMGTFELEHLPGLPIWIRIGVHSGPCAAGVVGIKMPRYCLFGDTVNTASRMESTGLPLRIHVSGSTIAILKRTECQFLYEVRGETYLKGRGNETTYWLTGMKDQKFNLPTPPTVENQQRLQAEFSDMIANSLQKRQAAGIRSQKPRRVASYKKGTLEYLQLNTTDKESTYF", "assay": "flow cytometry on T84 cells expressing GCC, 300 nm [sic], PE-anti human Fc secondary; Blank 30.7", "method": "T84 cells expressing GCC were used to evaluate the binding affinity of the anti-GCC sdAbs. Briefly, 50 μL T84 cells at density of 3×10⁶ cells/mL were incubated with 50 μL anti-GCC sdAbs at 4° C. for 2 hours. After incubation, the cells were washed three times with 400 μL FACS buffer, resuspended with PE-anti human Fc 2nd antibody (eBioscience 12-4998-82, 1:1000 dilution) and incubated at 4° C. for 60 min. Then the cells were collected and subject to FACS analysis.", "values": [{"binder": "anti-GCC single domain antibody SEQ ID NO. 5 (VHH, Alpaca-derived sdAb) VHH: AVQLVESGGGLVQPGGSLRLSCAASGSTISINVMGWYRQAPGKQRDLVAAISSVGSTYYADSVKGRFTISRDNAKNTVYLQMNSLKPEDTAVYYCNAKSLISDYWGQGTQVTVSS", "Geometric mean MFI": 371}, {"binder": "anti-GCC single domain antibody SEQ ID NO. 6 (VHH, Alpaca-derived sdAb) VHH: QVQVVESGGGLVQAGGSLRLSCAASGRAFSSYAMGWFRQAPGKQRELVAVITSGGSTNYADSVKGRFTISRDNAKNTVYLQMNSLKPEDTAVYYCAAGTGYGGGFLIGYDYWGQGTQVTVSS", "Geometric mean MFI": 298}, {"binder": "anti-GCC single domain antibody SEQ ID NO. 1 (VHH, Alpaca-derived sdAb) VHH: QVQLVESGGGLVQAGGSLRLSCTGSARPFSNYGMGWFRQAPGKEREFVAAISGGGVYTDFADAVKGRFTISRDNAKNTVYLQMNSLKPEDTAVYYCARARTARVVSRRHEYDYWGQGTQVTVSS", "Geometric mean MFI": 790}, {"binder": "anti-GCC single domain antibody SEQ ID NO. 3 (VHH, Alpaca-derived sdAb) VHH: QVQFVESGGGLVQAGGSLRLSCTASGGIFSNYGMGWFRQAPGKEREFVAAISGGGVYTDFADSVKGRFTISRDRAKNTVYLQMNSLKPEDTAVYYCARARTARLTSRRHDYDYWGQGTQVTVSS", "Geometric mean MFI": 910}, {"binder": "anti-GCC single domain antibody SEQ ID NO. 2 (VHH, Alpaca-derived sdAb) VHH: QVQLVESGGGLVQAGGSLRLSCTASGGTFVNYGMGWFRQAPGKEREFVAAISGGGVYRDFADSVKGRFTISRDNAKNTVYLQMNSLKPEDTALYYCARARTPRVVNRRHEYDYWGQGTQVTVSS", "Geometric mean MFI": 721}]}]}
